Source: patent publication US20240360223A1 (DRAGONFLY THERAPEUTICS, published 2024)
Where “and” joins values, the source holds several entries; their conditions need not be identical. Identical values can stand only once.

How the values were obtained:
[1] = molecular target: T1, cynomolgus CD16 (cynomolgus, UniProt Q8SPW2 17-208, limits assumed); test: SPR
T1 construct: also called Cyno CD16; cynomolgus FcγRIII

[2] = molecular target: T2, cynomolgus FcRn (cynomolgus, UniProt Q8SPV9 24-297; Q8SPW0 21-119); test: SPR, pH 6.0, steady state; pH 6.0; fourth replicate
T2 construct: also called Cyno FcRn

[3] = molecular target: T3, cynomolgus NKG2D (recombinant mFc-tagged dimer) (cynomolgus, UniProt P61252 78-216); test: SPR, steady state fit, average
T3 construct: also called cyno NKG2D
T3 sequence (looked up): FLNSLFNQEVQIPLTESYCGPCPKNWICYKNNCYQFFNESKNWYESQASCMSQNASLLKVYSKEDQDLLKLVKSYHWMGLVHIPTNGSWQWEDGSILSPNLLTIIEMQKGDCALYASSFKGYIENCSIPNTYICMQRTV
Description: (§1) NKG2D is a native dimer, therefore recombinant mFc-tagged NKG2D dimer was used for this experiment. Two different fits were utilized to obtain the equilibrium affinity data: steady state affinity fit and kinetic fit.

[4] = molecular target: T4, human NKG2D (recombinant mFc-tagged dimer) (human, UniProt P26718 78-216); test: SPR, steady state fit, average
T4 construct: also called hNKG2D
T4 sequence (looked up): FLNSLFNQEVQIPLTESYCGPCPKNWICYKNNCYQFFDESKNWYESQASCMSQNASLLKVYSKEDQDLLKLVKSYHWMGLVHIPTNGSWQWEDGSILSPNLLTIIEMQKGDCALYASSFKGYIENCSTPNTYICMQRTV
Description: as §1

[5] = molecular target: T5, human CD16a V158 (human, UniProt P08637 17-208); test: SPR, kinetic fit, average
T5 construct: also called hCD16aV; hCD16a V158

[6] = molecular target: T6, human FcRn (human, UniProt P55899 24-297; P61769 21-119); test: SPR, pH 6.0, steady state; pH 6.0; first replicate
[7] = molecular target: T4, human NKG2D (recombinant mFc-tagged …); test: SPR, kinetic fit, control
[8] = molecular target: T7, BCMA expressed on C6 cells (UniProt Q02223 1-184, limits assumed); test: flow cytometry on BCMA-C6 cells, anti-human Fc-g-PE
T7 construct: whole, on cells; also called BCMA-C6; isogenic BCMA+ cells
T7 sequence (looked up): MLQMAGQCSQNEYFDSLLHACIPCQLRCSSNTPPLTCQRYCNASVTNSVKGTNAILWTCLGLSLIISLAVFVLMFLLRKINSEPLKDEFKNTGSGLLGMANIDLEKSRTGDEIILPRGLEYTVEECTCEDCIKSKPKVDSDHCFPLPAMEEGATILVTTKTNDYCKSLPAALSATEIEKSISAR
Description: A mAb with known BCMA specificity (EM901) was used as a positive control for BCMA detection.

[9] = molecular target: T6, human FcRn; test: SPR, pH 6.0, steady state; pH 6.0; second replicate
[10] = molecular target: T1, cynomolgus CD16; test: SPR, average
[11] = molecular target: human CD16a F158 (human, UniProt P08637 17-208); test: SPR, steady state
[12] = molecular target: T8, human BAFF-R expressed on cells (human, UniProt Q96RJ3 1-184); test: flow cytometry on hBAFFR-CHO cells, anti-human Fc-g-PE, fold over background
T8 construct: Cell surface BAFF-R, endogenous on B cell lines and primary B cells or overexpressed on isogenic CHO cells; also called hBAFF-R; hBAFF-R-CHO

[13] = molecular target: T8, human BAFF-R expressed on cells; test: flow cytometry, human BAFF-R CHO cells
Description: Isogenic cell lines overexpressing human and cynomolgus BAFF-R on the backbone of CHO cell line were designed.

[14] = molecular target: T9, cynomolgus monkey BAFF-R expressed on cells (cynomolgus monkey); test: flow cytometry, CHO-cBAFF-R cells
T9 construct: whole, on cells; also called cBAFF-R; cynoBAFF-R

[15] = molecular target: T8, human BAFF-R expressed on cells; test: cell-based or functional assay
[16] = molecular target: T8, human BAFF-R expressed on cells; test: flow cytometry, Jeko-1 cells
[17] = molecular target: T3, cynomolgus NKG2D (recombinant …); test: SPR, steady state fit, average; remark: listed apart in the source
Description: (§2) Two different fits were utilized to obtain the equilibrium affinity data: steady state affinity fit and kinetic fit.

[18] = molecular target: T10, human CD32a R131 (human, UniProt P12318 36-218, limits assumed); test: SPR, steady state
T10 construct: also called FcγRIIa R131
T10 sequence (looked up): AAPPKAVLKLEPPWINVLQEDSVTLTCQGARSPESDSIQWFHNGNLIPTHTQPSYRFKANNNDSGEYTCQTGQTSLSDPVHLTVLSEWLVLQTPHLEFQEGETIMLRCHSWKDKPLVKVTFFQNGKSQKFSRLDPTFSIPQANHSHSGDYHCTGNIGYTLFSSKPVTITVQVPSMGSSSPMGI

[19] = molecular target: T4, human NKG2D (recombinant mFc-tagged …); test: SPR
Description: as §1

[20] = molecular target: T5, human CD16a V158; test: SPR, average
[21] = molecular target: T4, human NKG2D (recombinant mFc-tagged …); test: SPR, steady state, after 4 weeks at 40 °C
[22] = molecular target: T3, cynomolgus NKG2D (recombinant …); test: SPR
Description: as §2

[23] = molecular target: T3, cynomolgus NKG2D (recombinant …); test: SPR, kinetics fit, average
Description: as §2

T5 sequence (P08637 17-208 F176V limits assumed): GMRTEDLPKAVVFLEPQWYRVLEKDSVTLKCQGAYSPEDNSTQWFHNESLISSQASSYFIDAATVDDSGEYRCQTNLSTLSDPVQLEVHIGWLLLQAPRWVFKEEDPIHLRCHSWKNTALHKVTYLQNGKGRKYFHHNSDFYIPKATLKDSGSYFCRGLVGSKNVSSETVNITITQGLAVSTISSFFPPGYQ
T1 sequence (Q8SPW2 17-208 limits assumed): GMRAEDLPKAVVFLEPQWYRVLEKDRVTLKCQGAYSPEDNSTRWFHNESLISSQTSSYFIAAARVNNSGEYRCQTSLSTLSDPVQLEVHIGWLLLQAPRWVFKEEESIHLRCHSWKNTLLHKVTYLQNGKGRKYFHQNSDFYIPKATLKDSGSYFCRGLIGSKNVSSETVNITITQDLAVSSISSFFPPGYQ
Sequence of human CD16a F158 (P08637 17-208 limits assumed): as the sequence (P08637 17-208 F176V limits assumed) above, with V160F counted along it
T6 sequence (P55899 24-297 limits assumed, chain 1 of 2): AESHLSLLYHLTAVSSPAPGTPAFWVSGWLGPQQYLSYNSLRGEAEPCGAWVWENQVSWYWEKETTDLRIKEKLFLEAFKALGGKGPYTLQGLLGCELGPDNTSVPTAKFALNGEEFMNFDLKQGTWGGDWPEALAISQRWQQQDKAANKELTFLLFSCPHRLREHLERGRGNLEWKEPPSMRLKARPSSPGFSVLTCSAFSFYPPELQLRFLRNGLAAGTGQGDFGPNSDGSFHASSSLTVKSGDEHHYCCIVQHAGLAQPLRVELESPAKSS
T6 sequence (P61769 21-119 limits assumed, chain 2 of 2): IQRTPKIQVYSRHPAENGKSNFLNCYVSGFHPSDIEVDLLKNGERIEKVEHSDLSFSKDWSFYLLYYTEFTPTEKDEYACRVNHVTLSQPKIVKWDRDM
T2 sequence (Q8SPV9 24-297 limits assumed, chain 1 of 2): as the sequence (P55899 24-297 limits assumed, chain 1 of 2) above, with N39D, E44Q, G99S, S189G, S190N, L217M, S269T counted along it
T2 sequence (Q8SPW0 21-119 limits assumed, chain 2 of 2): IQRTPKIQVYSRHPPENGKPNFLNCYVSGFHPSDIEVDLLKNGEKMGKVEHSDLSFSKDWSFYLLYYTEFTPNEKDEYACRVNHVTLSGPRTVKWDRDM

B1: AB1424/AB1612 F3′ TriNKET (bispecific antibody, human IgG1, kappa)
chain: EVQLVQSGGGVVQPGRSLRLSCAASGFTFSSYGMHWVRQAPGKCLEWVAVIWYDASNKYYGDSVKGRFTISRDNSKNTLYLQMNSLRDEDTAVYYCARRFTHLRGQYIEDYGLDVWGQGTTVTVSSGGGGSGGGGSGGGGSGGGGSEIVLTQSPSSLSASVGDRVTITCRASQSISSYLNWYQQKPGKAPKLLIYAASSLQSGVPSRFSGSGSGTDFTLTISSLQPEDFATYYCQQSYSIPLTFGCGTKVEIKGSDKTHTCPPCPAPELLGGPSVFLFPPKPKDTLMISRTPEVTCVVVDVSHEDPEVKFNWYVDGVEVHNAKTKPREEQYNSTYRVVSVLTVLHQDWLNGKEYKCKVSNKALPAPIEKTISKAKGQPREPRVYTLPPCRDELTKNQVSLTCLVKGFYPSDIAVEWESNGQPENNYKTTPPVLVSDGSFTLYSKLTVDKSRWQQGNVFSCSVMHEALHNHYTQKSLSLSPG
heavy: EVQLVESGGGLVKPGGSLRLSCAASGFTFSSYSMNWVRQAPGKGLEWVSSISSSSSYIYYADSVKGRFTISRDNAKNSLYLQMNSLRAEDTAVYYCARGAPIGAAAGWFDPWGQGTLVTVSSASTKGPSVFPLAPSSKSTSGGTAALGCLVKDYFPEPVTVSWNSGALTSGVHTFPAVLQSSGLYSLSSVVTVPSSSLGTQTYICNVNHKPSNTKVDKKVEPKSCDKTHTCPPCPAPELLGGPSVFLFPPKPKDTLMISRTPEVTCVVVDVSHEDPEVKFNWYVDGVEVHNAKTKPREEQYNSTYRVVSVLTVLHQDWLNGKEYKCKVSNKALPAPIEKTISKAKGQPREPQVCTLPPSRDELTENQVSLTCLVKGFYPSDIAVEWESNGQPENNYKTTPPVLDSDGSFFLYSWLTVDKSRWQQGNVFSCSVMHEALHNHYTQKSLSLSPG
light: DIQMTQSPSSVSASVGDRVTITCRASQGISSWLAWYQQKPGKAPKLLIYAASSLQSGVPSRFSGSGSGTDFTLTISSLQPEDFATYYCQQGVSFPRTFGGGTKVEIKRTVAAPSVFIFPPSDEQLKSGTASVVCLLNNFYPREAKVQWKVDNALQSGNSQESVTEQDSKDSTYSLSSTLTLSKADYEKHKVYACEVTHQGLSSPVTKSFNRGEC
notes: Chain S: anti-BAFF-R scFv-CH2-CH3; chain H: anti-NKG2D VH-CH1-CH2-CH3; chain L: anti-NKG2D VL-CL; also called AB1612-002
For B1, the Kd [1] was 261 nM and 269 nM and 283 nM and 260 nM, the koff [1] was 0.02 s⁻¹ and 0.021 s⁻¹ and the kon [1] was 78000 M⁻¹ s⁻¹ and 72000 M⁻¹ s⁻¹. It also gave a Kd [2] of 1000 nM, a Kd [3] of 520 nM and a Kd [4] of 456 nM. The Kd [5] was 129 nM, the Kd [6] was 1000 nM and the Kd [7] was 503 nM. The binding result [8] was “no binding (tested: about 50 nM)”, the Kd [9] was 1000 nM and the koff [10] was 0.021 s⁻¹. The kon [10] was 76000 M⁻¹ s⁻¹, the Kd [11] was 1330 nM and 1260 nM and 1370 nM and 1430 nM and the “EC50 (read off the curve)” value [12] was about 0.8 nM. For the same binder, the EC50 [13] was 0.9 nM, the “Max FOB” value [13] was 85 fold over background and the EC50 [14] was 0.96 nM. For the same binder, the “Max FOB” value [14] was 67 fold over background, the “KHYG-1-CD16a cytotoxicity on BJAB cells, EC50” value [15] was 0.03 nM and the EC50 [16] was 0.13 nM. For the same binder, the “Max FOB” value [16] was 7 fold over background, the Kd [17] was 609 nM and the Kd [18] was 1500 nM and 1300 nM and 1200 nM. For the same binder, the koff [19] was 0.11 s⁻¹, the kon [19] was 240000 M⁻¹ s⁻¹ and 230000 M⁻¹ s⁻¹ and the koff [20] was 0.014 s⁻¹. The kon [20] was 110000 M⁻¹ s⁻¹, the Kd [21] was 522 nM and the koff [22] was 0.11 s⁻¹ and 0.12 s⁻¹. For the same binder, the kon [22] was 180000 M⁻¹ s⁻¹ and 190000 M⁻¹ s⁻¹ and the Kd [23] was 596 nM.
